Experimental data published in US20030139361A1, “Drug for gene therapy” (priority 2000, published 2003).

Columns and labels:
[1] = test system: liver graft, DA rat to LEW rat (acute rejection); assay: Immunosuppressive activity of the IDO protein using acute rejection model (sympatric liver transplantation, DA rat to LEW rat); assay type: in vivo; settings: for average days of take (survival): consecutive days through the tail vein after liver transplantation, N = 6
Procedure: As for the animals, male LEW and DA rats (200-350 g) were used. In the administration of the aforementioned gene therapeutic agents, immediately after Ringer's Solution (Fuso Pharmaceutical Co. Ltd.) was used in the operation and was allowed to perfuse the portal veins and the liver, the respective agents were infused from the portal veins into the liver at a speed of 5 ml/min. After allowing to stand in the culture solution for 30 minutes, the liver into which the gene had been transferred was grafted to the LEW rat.
A model similar to that in Example 2 was used to judge the therapeutic effect of the IDO protein prepared in Example 5. The IDO protein was administered consecutive days through the tail vein immediately after the liver transplantation at a dosage of 300 μg/rat.

[2] = test system: spleen cells derived from PVG rat and mitomycin-treated DA rat; assay: Lymphocyte mixed culture test (BrdU incorporation); assay type: cell-based; settings: 4 days culture, BrdU 10 μM for last 16 hours; FIG. 2
Procedure: To study the immunosuppressive activity of the human IDO protein prepared in Example 10, a lymphocyte mixed culture test was carried out. The spleen cells derived from a non-treated PVG rat and the spleen cells derived from a DA rat treated with 25 μg/ml of mitomycin (SIGMA-Aldrich Corporation) were seeded on a U bottom 96-well plate (NUNC Inc.) at 5×10^4/well and at 8×10^6/well, respectively. The IDO protein was then added and culturing was done for 4 days. Sixteen hours before the finish of culturing 5-bromo-2′deoxyuridine (BrdU) was added at a final concentration of 10 μM. The amount of BrdU incorporated into the intracellular DNA was quantified using a BrdU Labeling & Detection Kit III (Roche Diagnostics Inc.).

B1: IDO protein: Recombinant murine indoleamine 2,3-dioxygenase protein prepared in Example 5 from E. coli (protein, UniProt P28776 1-407, looked up)
Indoleamine 2,3-dioxygenase 1: MALSKISPTEGSRRILEDHHIDEDVGFALPHPLVELPDAYSPWVLVARNLPVLIENGQLREEVEKLPTLSTDGLRGHRLQRLAHLALGYITMAYVWNRGDDDVRKVLPRNIAVPYCELSEKLGLPPILSYADCVLANWKKKDPNGPMTYENMDILFSFPGGDCDKGFFLVSLLVEIAASPAIKAIPTVSSAVERQDLKALEKALHDIATSLEKAKEIFKRMRDFVDPDTFFHVLRIYLSGWKCSSKLPEGLLYEGVWDTPKMFSGGSAGQSSIFQSLDVLLGIKHEAGKESPAEFLQEMREYMPPAHRNFLFFLESAPPVREFVISRHNEDLTKAYNECVNGLVSVRKFHLAIVDTYIMKPSKKKPTDGDKSEEPSNVESRGTGGTNPMTFLRSVKDTTEKALLSWP
modifications: recombinant, E. coli
[1]; 50 μg/rat
  average days of take (survival): 10.6 days
[1]; 300 μg/rat
  average days of take (survival): >30 days
[1]; 300 μg/rat, tail vein, consecutive days
  days of take of the liver graft (in words): marked increase
[2]
  immunosuppressive activity (amount of BrdU incorporated into intracellular DNA): immunosuppressive effect was observed
